Assay results taken from the supplement of paper PMC10724198.
± gives the standard deviation of the averaged measurements.

Columns and labels:
[1] = tested on: Saccharomyces cerevisiae; test: protein stability index of tFT-peptide fusion (C-terminal peptide) (PSI (0-1 scale)); higher = more stable (slower turnover)
Protocol: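 MPS profiling in S. cerevisiae of the tFT-X12 degron library: putative degron peptides plus stable controls, 12 aa, fused to the C-terminus of a sfGFP-mCherry timer. Cells are FACS-sorted into 8 mCherry/sfGFP bins and deep-sequenced. PSI runs from 0 (unstable) to 1 (stable). Backgrounds are wild type, das1Δ and doa10Δ at 30 °C, and wild type, das1Δ, cdc34-1 and cdc53-1 at 37 °C; 2-3 technical replicates each.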

[2] = tested on: Saccharomyces cerevisiae; test: as above; conditions: genetic background: wild type; temperature: 30 C
[3] = genetic background: cdc34-1, temperature: 37 C
[4] = genetic background: cdc53-1, temperature: 37 C
[5] = genetic background: das1 deletion, temperature: 30 C
[6] = genetic background: das1 deletion, temperature: 37 C
[7] = genetic background: doa10 deletion, temperature: 30 C
[8] = genetic background: wild type, temperature: 30 C
[9] = genetic background: wild type, temperature: 37 C
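Further: PSI is a weighted mean of sequencing reads over stability bins, variants kept only with over 10 reads, mCherry proximal and sfGFP distal, peptide attached via GGGS linker.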

| Sequence | protein stability index [1, 3] | protein stability index [1, 4] | protein stability index [1, 5] | protein stability index [1, 6] | protein stability index [1, 7] | protein stability index [1, 8] | protein stability index [1, 9] | protein stability index [2] |
| --- | --- | --- | --- | --- | --- | --- | --- | --- |
| PSFVEVAFAVCC | 0.569 ± 0.037 | 0.555 ± 0.039 | 0.347 ± 0.045 | 0.5575 ± 0.0034 | 0.339 ± 0.03 | 0.366 ± 0.0077 | 0.541 ± 0.019 | 0.451 ± 0.058 |
| VCNQVPGVIWFC | 0.683 ± 0.036 | 0.771 ± 0.017 | 0.654 ± 0.018 | 0.7556 ± 0.0068 | 0.373 ± 0.0045 | 0.412 ± 0.018 | 0.61183 ± 8.6e-05 | 0.481 ± 0.022 |
| GGGVRWGVLVLG | 0.527 ± 0.007 | 0.606 ± 0.032 | 0.4 ± 0.035 | 0.599 ± 0.013 | 0.346 ± 0.017 | 0.391 ± 0.036 | 0.553 ± 0.012 | 0.474 ± 0.011 |
| SIQMNCILLLVI | 0.211 ± 0.041 | 0.224 ± 0.021 | 0.213 ± 0.026 | 0.339 ± 0.012 | 0.188 ± 0.032 | 0.186 ± 0.024 | 0.299 ± 0.028 | 0.298 ± 0.058 |
| LSFRLSYPLPIY | 0.418 ± 0.017 | 0.47 ± 0.025 | 0.352 ± 0.034 | 0.5403 ± 0.0029 | 0.1 ± 0.013 | 0.108 ± 0.0014 | 0.132 ± 0.0069 | 0.178 ± 0.032 |
| LVGWSWAACWLA | 0.522 ± 0.057 | 0.608 ± 0.029 | 0.58 ± 0.024 | 0.712 ± 0.019 | 0.292 | 0.298 ± 0.012 | 0.396 ± 0.012 | 0.408 ± 0.016 |
| CIEIDHVIVAIC | 0.464 ± 0.019 | 0.527 ± 0.062 | 0.348 ± 0.035 | 0.563 ± 0.03 | 0.265 ± 0.0061 | 0.334 ± 0.015 | 0.492 ± 0.018 | 0.446 ± 0.021 |
| LQSVLRGIDCCA | 0.347 ± 0.0089 | 0.375 ± 0.016 | 0.252 ± 0.053 | 0.467 ± 0.0052 | 0.214 ± 0.0044 | 0.266 ± 0.018 | 0.4341 ± 0.0029 | 0.411 ± 0.085 |
| GGGSRICIVRLS | 0.654 ± 0.092 | 0.7229 ± 0.0024 | 0.636 ± 0.017 | 0.722 ± 0.0083 | 0.178 ± 0.025 | 0.197 ± 0.023 | 0.406 ± 0.03 | 0.337 ± 0.077 |
| TCRASLRRIVVA | 0.514 ± 0.024 | 0.538 ± 0.03 | 0.381 ± 0.031 | 0.5813 ± 0.0056 | 0.222 ± 0.01 | 0.255 ± 0.042 | 0.459 ± 0.015 | 0.358 ± 0.034 |
| CFVFIGVGVLLG | 0.205 ± 0.0083 | 0.387 ± 0.025 | 0.29 ± 0.039 | 0.4436 ± 0.00094 | 0.224 ± 0.0069 | 0.234 ± 0.021 | 0.382 ± 0.014 | 0.376 ± 0.037 |
| LDIFRKLVIVLC | 0.0767 ± 0.013 | 0.0777 ± 0.02 | 0.18 ± 0.033 | 0.2628 ± 0.00073 | 0.102 ± 0.027 | 0.107 ± 0.025 | 0.0878 ± 0.0015 | 0.169 ± 0.07 |
| FFLSAFFFFFLF | 0.342 ± 0.04 | 0.346 ± 0.017 | 0.359 ± 0.015 | 0.4409 ± 0.0039 | 0.3669 ± 0.002 | 0.291 ± 0.027 | 0.36913 ± 0.00026 | 0.361 ± 0.0086 |
| HYATLMSLRKVL | 0.6682 ± 0.0023 | 0.716 ± 0.036 | 0.64 ± 0.022 | 0.7219 ± 0.0017 | 0.128 ± 0.0077 | 0.137 ± 0.022 | 0.316 ± 0.032 | 0.27 ± 0.047 |
| FLVGVARCPFLV | 0.632 ± 0.069 | 0.7 ± 0.015 | 0.587 ± 0.018 | 0.725 ± 0.053 | 0.244 ± 0.021 | 0.254 ± 0.034 | 0.401 ± 0.012 | 0.361 ± 0.012 |
| GIALYVCFICVG | 0.213 ± 0.0051 | 0.364 ± 0.013 | 0.253 ± 0.017 | 0.4325 ± 0.0026 | 0.137 ± 0.026 | 0.17 ± 0.015 | 0.276 ± 0.012 | 0.245 ± 0.05 |
| DRLAVLVLLRVY | 0.0219 ± 0.0022 | 0.0458 ± 0.013 | 0.137 ± 0.041 | 0.182 ± 0.0035 | 0.0574 ± 0.01 | 0.0636 ± 0.018 | 0.0571 ± 0.016 | 0.109 ± 0.017 |
| VFRVLLSLFSTL | 0.657 ± 0.021 | 0.7335 ± 0.0063 | 0.653 ± 0.018 | 0.738 ± 0.0053 | 0.289 ± 0.019 | 0.306 ± 0.023 | 0.4804 ± 0.0029 | 0.408 ± 0.0095 |
| LLLLLPLYLLPI | 0.24 ± 0.031 | 0.177 ± 0.037 | 0.31 ± 0.035 | 0.412 ± 0.021 | 0.553 ± 0.035 | 0.322 ± 0.017 | 0.368 ± 0.0062 | 0.372 ± 0.048 |
| IWCQVGAFLVVF | 0.218 ± 0.0075 | 0.257 ± 0.0071 | 0.209 ± 0.024 | 0.352 ± 0.0047 | 0.18 ± 0.01 | 0.198 ± 0.02 | 0.337 ± 0.0084 | 0.307 ± 0.027 |

| Sequence | protein stability index [1, 3] | protein stability index [1, 4] | protein stability index [1, 5] | protein stability index [1, 6] | protein stability index [1, 7] | protein stability index [1, 8] | protein stability index [1, 9] | protein stability index [2] |
| --- | --- | --- | --- | --- | --- | --- | --- | --- |
| MCFFVFVLFLFC | 0.307 ± 0.034 | 0.398 ± 0.12 | 0.281 ± 0.029 | 0.406 ± 0.013 | 0.2977 ± 0.0013 | 0.269 ± 0.033 | 0.377 ± 0.011 | 0.33 ± 0.015 |
| VPRLFSVIVVPV | 0.517 ± 0.04 | 0.5325 ± 0.0033 | 0.39 ± 0.033 | 0.5519 ± 0.0049 | 0.359 ± 0.012 | 0.389 ± 0.03 | 0.536 ± 0.018 | 0.488 ± 0.052 |
| FFTLLLFLFFSV | 0.352 ± 0.035 | 0.278 ± 0.032 | 0.3 ± 0.026 | 0.435 ± 0.039 | 0.395 ± 0.0048 | 0.293 ± 0.03 | 0.411 ± 0.022 | 0.321 ± 0.0086 |
| KKNKIYKERKNI | 0.702 ± 0.17 |  | 0.6248 ± 0.0028 | 0.7245 ± 0.0029 | 0.203 ± 0.02 | 0.289 ± 0.13 | 0.462 ± 0.064 | 0.434 ± 0.046 |
| VWWGVGVWLLVG | 0.104 ± 0.025 | 0.176 ± 0.02 | 0.242 ± 0.015 | 0.369 ± 0.011 | 0.0694 ± 0.016 | 0.0673 ± 0.018 | 0.0755 ± 0.036 | 0.147 ± 0.04 |
| FLISVRFVLILN | 0.169 ± 0.027 | 0.186 ± 0.012 | 0.175 ± 0.021 | 0.278 ± 0.01 | 0.143 ± 0.0081 | 0.135 ± 0.0052 | 0.208 ± 0.0085 | 0.173 ± 0.024 |
| VFRYWCGIFCLT | 0.688 ± 0.052 | 0.701 ± 0.054 | 0.613 ± 0.025 | 0.789 ± 0.045 | 0.528 ± 0.027 | 0.547 ± 0.019 | 0.6715 ± 0.0057 | 0.478 ± 0.07 |
| HNLYCKILQLCV | 0.419 ± 0.013 | 0.49 ± 0.12 | 0.304 ± 0.049 | 0.497 ± 0.04 | 0.242 ± 0.017 | 0.294 ± 0.025 | 0.449 ± 0.03 | 0.446 ± 0.0057 |
| KQNKKHKKLKSN | 0.543 ± 0.051 | 0.718 ± 0.051 | 0.66 ± 0.026 | 0.694 ± 0.021 | 0.111 ± 0.0086 | 0.0929 ± 0.018 | 0.182 ± 0.036 | 0.182 ± 0.091 |
| YRNRKMYCITNC | 0.682 ± 0.03 | 0.737 ± 0.017 | 0.636 ± 0.038 | 0.743 ± 0.018 | 0.207 ± 0.044 | 0.26 ± 0.017 | 0.51 ± 0.058 | 0.423 ± 0.014 |
| ISVFLFAFFFIP | 0.447 ± 0.0098 | 0.553 ± 0.024 | 0.395 ± 0.03 | 0.531 ± 0.013 | 0.275 ± 0.016 | 0.306 ± 0.012 | 0.425 ± 0.01 | 0.356 ± 0.031 |
| IGKEKRMKVIQI | 0.65 ± 0.025 | 0.69 ± 0.022 | 0.624 ± 0.018 | 0.735 ± 0.019 | 0.433 ± 0.0078 | 0.477 ± 0.0096 | 0.615 ± 0.013 | 0.516 ± 0.065 |
| FPRLERVAVMAR | 0.117 ± 0.035 | 0.127 ± 0.035 | 0.177 ± 0.032 | 0.244 ± 0.0086 | 0.145 ± 0.0069 | 0.167 ± 0.025 | 0.221 ± 0.031 | 0.25 ± 0.011 |
| IVCFCFFLMFSL | 0.319 ± 0.063 | 0.34 ± 0.011 | 0.321 ± 0.021 | 0.417 ± 0.014 | 0.4222 ± 0.0033 | 0.317 ± 0.017 | 0.3766 ± 0.0011 | 0.378 ± 0.0077 |
| VFGARLFLIRLV | 0.405 ± 0.059 | 0.519 ± 0.069 | 0.534 ± 0.033 | 0.635 ± 0.023 | 0.155 ± 0.027 | 0.14 ± 0.041 | 0.1767 ± 0.00049 | 0.223 ± 0.0077 |
| VFFGCIWSIVYN | 0.247 ± 0.022 | 0.302 ± 0.12 | 0.213 ± 0.035 | 0.41 ± 0.018 | 0.181 ± 0.014 | 0.229 ± 0.042 | 0.377 ± 0.011 | 0.2962 ± 0.0012 |
| KVRVRTTCWRKL | 0.617 ± 0.039 | 0.686 ± 0.038 | 0.625 ± 0.015 | 0.7074 ± 0.0013 | 0.134 ± 0.0059 | 0.155 ± 0.014 | 0.347 ± 0.0065 | 0.255 ± 0.019 |
| CSSFFLLLFFLF | 0.351 ± 0.051 | 0.448 ± 0.018 | 0.335 ± 0.021 | 0.451 ± 0.029 | 0.301 ± 0.021 | 0.268 ± 0.01 | 0.407 ± 0.0056 | 0.311 ± 0.019 |
| EVSIISECKVAS | 0.5081 ± 0.0025 | 0.639 ± 0.059 | 0.44 ± 0.019 | 0.585 ± 0.026 | 0.145 ± 0.013 | 0.175 ± 0.014 | 0.281 ± 0.015 | 0.258 ± 0.011 |
